According to patent publication US6849598B1, “Therapeutic compositions comprising bactericidal/permeability-increasing (BPI) protein products” (XOMA, priority 1995, dated 2005):

Assays:
Format in all cases: cell-based
[1] = tested on: A. baumannii (formerly A. anitratus); experiment: Bactericidal activity in water or broth, CFU after 30 minutes and 3 hours (Example 3)
Protocol: (§1) The bactericidal activity of therapeutic compositions comprising BPI protein product and heat-treated PLURONIC P103 or heat-treated PLURONIC P104, was evaluated against the S. aureus and A. baumannii clinical isolates of Example 1 and the additional organisms S. pneunoniae (Microscan® ID no. 145) and E. faecium (Microscan® ID no. 15773). Therapeutic compositions comprising 500 μg/mL rBPI21 in a 0.075% (w/v) concentration of either heat-treated PLURONIC P103 or heat-treated PLURONIC P104 were formulated by diluting a 2 mg/mL solution of “non-formulated” rBPI21 or “formulated” rBPI21, with the appropriate amounts of 0.1% heat-treated PLURONIC P103 or heat-treated PLURONIC P104 solutions. Compositions comprising 500 μg/mL non-formulated rBPI21 in water alone (without any poloxamers) and poloxamer control solutions containing only 0.1% heat-treated P103 or heat-treated P104 (and no rBPI21) were also prepared A “formulated” rBPI23 therapeutic composition containing 1 mg/mL rBPI23, 0.1% PLURONIC F68 and 0.002% TWEEN 80 was also tested for comparison.
(§2) Sterile stock solutions of heat-treated PLURONIC P103 or heat-treated PLURONIC P104 were prepared using the following procedure: (1) making a 0.1% (w/v) solution of the poloxamer in deionized water, (2) heating the solution to a boil, (3) allowing it to cool to room temperature, (4) stirring until the PLURONIC P103 was completely solubilized, and (5) filtering the solution through a 0.22 μm Nalgene filter for sterilization.
(§3) The S. aureus, E. faecium and A. baumannii bacteria were grown on TSA plates (Remel, Catalog #01-920, Lenexa, Kans.), and the S. pneumoniae were grown on 5% sheep blood agar plates (Remel, Catalog# 01-200, Lenexa, Kans.) for 24 hours. A bacterial stock emulsion was prepared by emulsifying bacterial colonies in sterile deionized water to approximately 2.2 to 3.8×10^8 CFU/mL as measured by a Microscan® Turbidity Meter, and diluting further by 1:10 in water. Assays for rBPI21 therapeutic compositions were conducted in 96-well flat-bottom microtiter plates (Corning, catalog# 25860-96) by adding to each well: 185 μL of TSB (Remel, catalog #08-942, Lenexa, Kans.) or sterile water for injection (Kendall McGaw); 8 μL of the bacterial emulsion; 6.3 μL of the indicated 500 μg/mL rBPI21/poloxamer therapeutic composition (or poloxamer control solution or water alone). The final concentrations of bacteria in each well were about 4 to 7×10^5 CFU/mL. Assays for the rBPI23 therapeutic composition were conducted in the same way, except 178 μL of broth or water and 13 μL of the […] rBPI23 composition were added. The well contents were mixed and the plates were incubated at 37° C. The CFUs in each well were counted at 10^−2 and 10^−4 dilutions after 30 minutes and 3 hours of incubation. Results at 30 minutes and 3 hours, respectively, are shown below in Tables 8 and 9.

[2] = tested on: S. pneumoniae (Microscan® ID no. 145); experiment: as above
Protocol: as §1, §2, §3

S. aureus [3] = experiment: as above
Protocol: as §1, §2, §3

[4] = tested on: E. faecium (Microscan® ID no. 15773); experiment: as above
Protocol: as §1, §2, §3

[5] = tested on: E. faecium (Microscan® ID No. 16866); experiment: Bactericidal activity in water, TSB, CSMHB or serum, CFU after 24 hours (Example 5)
Protocol: (§4) The bactericidal activity of therapeutic compositions comprising BPI protein product and PLURONIC F68, P103, P104, P105 or P123 were evaluated against the S. aureus and A. baumannii organisms of Example 1, the S. pneumoniae organism of Example 3, an E. faecium organism (Microscan® ID No. 16866), and a strain of P. aeruginosa from the American Type Culture Collection (ATCC No. 19660). Therapeutic compositions were formulated by adding the appropriate amount of poloxamer to a stock solution of 2.2 mg/mL rBPI21 (5 mM sodium citrate, 150 mM NaCl, without poloxamer), to achieve the desired 0.2% (w/v) poloxamer concentration, followed by sterile filtration. Formulated product was stored at 2-8° C. for up to 6 months. Sterile stock solutions of poloxamer were made by dissolving the poloxamer paste in water for injection (WFI, Kendall-McGaw) with mixing to a 1-5% concentration (w/v) at room temperature, followed by sterile filtration. Assays were conducted in 96-well microtiter plates using WFI, tryptic soy broth (TSB, Remel, Lenexa, Kans.), Mueller-Hinton Broth plus Cations (CSMHB, Remel), or 40% pooled human serum in CSMHB (Sigma, St. Louis, Mo.) as growth media, according to the general procedure described above in Examples 2 and 3.

A. baumannii [6] = experiment: as above
Protocol: as §4

S. aureus [7] = experiment: as above
Protocol: as §4

S. pneumoniae = experiment: as above; conditions: Control 3 × 10^5
Protocol: as §4

A. baumannii [8] = experiment: Bactericidal activity with heat-treated PLURONIC P104 in serial 2-fold dilutions of serum; conditions: formulated BPI protein product diluted with heat-treated PLURONIC P104 solution
Protocol: Additional experiments were performed to test therapeutic compositions, prepared by diluting a variety of formulated BPI protein products with heat-treated PLURONIC P104 solution, and tested against A. baumannii in serial 2-fold dilutions of serum.

[9] = broth, Incubation for 3 hours, Control TNTC
[10] = water, Incubation for 3 hours, Control TNTC
[11] = broth, Incubation for 30 minutes, Control TNTC / TNTC
[12] = water, Incubation for 30 minutes, Control TNTC / TNTC

B1: rBPI21: expression product of DNA encoding amino acid 1 to approximately 193 or 199 of BPI holoprotein, cysteine 132 substituted with alanine (protein, UniProt P17213 32-224, looked up, variant C132A)
chain: VNPGVVVRISQKGLDYASQQGTAALQKELKRIKIPDYSDSFKIKHLGKGHYSFYSMDIREFQLPSSQISMVPNVGLKFSISNANIKISGKWKAQKRFLKMSGNFDLSIEGMSISADLKLGSNPTSGKPTITASSCSSHINSVHVHISKSKVGWLIQLFHKKIESALRNKMNSQVCEKVTNSVSSELQPYFQTL
For B1, the CFUs ([1]; A. anitratus, broth, Incubation for 30 minutes, Control 44 / 41) was 24 10000 CFUs, the CFUs ([1]; A. anitratus, broth, Incubation for 30 minutes, Control TNTC / TNTC) was “TNTC” and the CFUs ([1]; A. anitratus, water, Incubation for 30 minutes, Control 16 / 17) was 0 10000 CFUs. The CFUs ([1]; A. anitratus, water, Incubation for 30 minutes, Control TNTC / TNTC) was 73 100 CFUs, the CFUs [1, 9] was 58 100 CFUs and the CFUs [1, 10] was 0 100 CFUs. For the same molecule, the CFUs ([2]; broth, Incubation for 30 minutes, Control 4 / 1) was 4 10000 CFUs, the CFUs ([2]; broth, Incubation for 30 minutes, Control 389 / 350) was 290 100 CFUs and the CFUs ([2]; broth, Incubation for 3 hours, Control 337) was 447 100 CFUs. For the same molecule, the CFUs ([2]; water, Incubation for 30 minutes, Control 1 / 0) was 0 10000 CFUs, the CFUs ([2]; water, Incubation for 30 minutes, Control 75 / 47) was 61 100 CFUs and the CFUs ([2]; water, Incubation for 3 hours, Control 0) was 0 100 CFUs. For the same molecule, the CFUs (S. aureus [3]; broth, Incubation for 30 minutes, Control 65 / 59) was 57 10000 CFUs, the CFUs (S. aureus [3]; [11]) was “TNTC” and the CFUs (S. aureus [3]; [9]) was “TNTC”. The CFUs (S. aureus [3]; water, Incubation for 30 minutes, Control 54 / 63) was 2 10000 CFUs, the CFUs (S. aureus [3]; [12]) was 315 100 CFUs and the CFUs (S. aureus [3]; [10]) was 12 100 CFUs. For the same molecule, the CFUs ([4]; broth, Incubation for 30 minutes, Control 68 / 38) was 89 10000 CFUs, the CFUs [4, 11] was “TNTC” and the CFUs [4, 9] was “TNTC”. The CFUs ([4]; water, Incubation for 30 minutes, Control 37 / 35) was 1 10000 CFUs, the CFUs [4, 12] was 50 100 CFUs and the CFUs [4, 10] was 1 100 CFUs. For the same molecule, the “colony forming units after 24 hours of incubation” value (“colony forming units” below) ([5]; TSB, Control 5 × 10^5) was 5 × 10^5, the “colony forming units” value ([5]; Water, Control 4 × 10^5) was 100 and the “colony forming units” value (A. baumannii [6]; Serum (40% pooled human serum in CSMHB), Control 2 × 10^5) was 2 × 10^5. For the same molecule, the “colony forming units” value (A. baumannii [6]; TSB, Control 3 × 10^6) was 6 × 10^2, the “colony forming units” value (A. baumannii [6]; Water, Control 2 × 10^6) was <100 and the “colony forming units” value (S. aureus [7]; Serum (40% pooled human serum in CSMHB), Control 4.2 × 10^5) was >1 × 10^5. For the same molecule, the “colony forming units” value (S. aureus [7]; TSB, Control 5.4 × 10^5) was 5.7 × 10^5, the “colony forming units” value (S. aureus [7]; Water, Control 8.2 × 10^5) was 3.2 × 10^4 and the “colony forming units” value (S. pneumoniae) was 5 × 10^4. The “serum concentrations at which bactericidal activity was observed” value (A. baumannii [8]) was ≤ 6.25%.
